This series concerns T1, VPF-FRRG(SEQ ID NO: 1)-DOX self-assembled nanoparticles (LT-NPs).
T1 sequence: FRRG

For cathepsin B (Cat-B) protease, the “cleavage of LT-NPs after enzymatic reaction with cathepsin B (RP-HPLC at 0, 9 and 24 h; fluorescence spectrophotometry)” value is “the self-assembled nanoparticles (LT-NPs) were cleaved by cathepsin B to release doxorubicin and the photosensitizer”; the “morphology by transmission electron microscopy after 24 h reaction with cathepsin B (50 ug/mL)” value was “the self-assembled nanoparticles (LT-NPs) were degraded by cathepsin B present in cancer cells and existed in an activated state”.

Source of the values: patent US20220370611.
